In this experiment the target is CXCR2-4A/IL (S342A/S346A/S347A/S348A and I323A/L324A) (human). In words: co-IP.

From PMC3966550 come the findings set out here.

Sequence of β-arrestin1 (P49407 whole entry): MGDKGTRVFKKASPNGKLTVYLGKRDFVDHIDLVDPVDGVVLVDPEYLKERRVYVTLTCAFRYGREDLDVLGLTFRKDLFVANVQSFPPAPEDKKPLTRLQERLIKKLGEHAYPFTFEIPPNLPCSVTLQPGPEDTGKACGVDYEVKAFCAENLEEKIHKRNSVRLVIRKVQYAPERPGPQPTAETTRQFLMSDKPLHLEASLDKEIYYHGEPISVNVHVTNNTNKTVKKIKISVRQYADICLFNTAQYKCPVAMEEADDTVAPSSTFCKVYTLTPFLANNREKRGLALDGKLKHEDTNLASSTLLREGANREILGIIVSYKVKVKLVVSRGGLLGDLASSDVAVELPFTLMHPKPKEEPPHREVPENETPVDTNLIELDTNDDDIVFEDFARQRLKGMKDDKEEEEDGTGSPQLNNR

“β-arrestin1 (from UniProt P49407 1-418) (natural protein)” returned a reduction of binding (co-precipitated β-arrestin1) of 90%.
